# Source: patent US20200262877A1, “ION CHANNEL-BINDING PEPTIDES AND METHODS OF USE THEREOF” (priority 2017, published 2020)
# Assays:
# Nav1.7 = target: T1, Nav1.7 (Homo sapiens, UniProt Q15858); assay: cell-based; format: cell-based; conditions: 100% = no change; for Activity of Nav1.7 with peptide, expressed as a percentage of the reference compound: peptide at 0.2 μM; for Activity of Nav1.7 with peptide (percentage of the reference compound): peptide at 20 μM
# T1 construct: host or cells: HEK293 or CHO
# 5HT3a = target: T2, 5HT3a (Homo sapiens, UniProt P46098); assay: Ion channel panel (IonWorks Barracuda): 5HT3a; format: cell-based
# T2 construct: host or cells: HEK293 or CHO
# T2 sequence (P46098 whole entry, looked up): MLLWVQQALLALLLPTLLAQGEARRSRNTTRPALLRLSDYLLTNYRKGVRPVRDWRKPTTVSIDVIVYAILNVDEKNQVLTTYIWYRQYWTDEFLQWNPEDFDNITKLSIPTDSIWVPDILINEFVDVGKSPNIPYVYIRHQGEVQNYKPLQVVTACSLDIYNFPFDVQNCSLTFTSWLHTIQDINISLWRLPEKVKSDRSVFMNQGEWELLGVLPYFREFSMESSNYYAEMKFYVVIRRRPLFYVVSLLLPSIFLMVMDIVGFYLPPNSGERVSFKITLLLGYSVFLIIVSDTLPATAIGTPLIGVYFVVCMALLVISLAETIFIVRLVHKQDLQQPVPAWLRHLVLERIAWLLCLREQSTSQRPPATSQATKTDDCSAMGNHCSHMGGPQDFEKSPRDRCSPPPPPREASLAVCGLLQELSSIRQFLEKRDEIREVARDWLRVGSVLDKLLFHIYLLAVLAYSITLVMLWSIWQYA
# Summary of the method: (§1)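 Transfected HEK293 or CHO cells were exposed for at least 5 min to peptides at 200 nM and 20 μM final, tested in duplicate, in HEPES-buffered physiological saline. Activation was taken as peptide-plus-agonist current over control current ×100, and inhibition as 1 minus that ratio ×100. Each channel's control was its own reference compound.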
# NR2B = target: T3, NR2B (Homo sapiens, UniProt Q13224); assay: Ion channel panel (IonWorks Barracuda): NR2B; format: cell-based; conditions: 100% = no change, <100% = inhibition
# T3 construct: host or cells: HEK293 or CHO
# Summary of the method: as §1
# Kir2.1 = target: T4, Kir2.1 (Homo sapiens, UniProt P63252); assay: Ion channel panel (IonWorks Barracuda): Kir2.1; format: cell-based; conditions: 100% = no change, <100% = inhibition
# T4 construct: host or cells: HEK293 or CHO
# Summary of the method: as §1
# α4β2 = target: T5, α4β2 (Homo sapiens, UniProt P17787+P43681); assay: Ion channel panel (IonWorks Barracuda): α4β2; format: cell-based; conditions: 100% = no change, <100% = inhibition
# T5 construct: host or cells: HEK293 or CHO
# Summary of the method: as §1
# Nav1.5 = Nav1.5 (Homo sapiens, UniProt Q14524); assay: in vitro; conditions: 100% = no change; for Activity of Nav1.5 with peptide, expressed as a percentage of the reference compound: peptide at 0.2 μM; for Activity of Nav1.5 with peptide (percentage of the reference compound): peptide at 20 μM
# Summary of the method: as §1
# hERG = hERG (Homo sapiens, UniProt Q12809); assay: in vitro; conditions: 100% = no change, <100% = inhibition
# Summary of the method: as §1
# Cav2.1 = target: T6, Cav2.1 (Homo sapiens, UniProt O00555); assay: cell-based; conditions: 100% = no change, <100% = inhibition
# T6 construct: host or cells: HEK293 or CHO
# Summary of the method: as §1
# Kv2.1 = target: T7, Kv2.1 (Homo sapiens, UniProt Q14721); assay: cell-based; conditions: 100% = no change, <100% = inhibition
# T7 construct: host or cells: HEK293 or CHO
# Summary of the method: as §1
# Cav2.2 = target: T8, Cav2.2 (Homo sapiens, UniProt Q00975); assay: cell-based; conditions: 100% = no change, <100% = inhibition
# T8 construct: host or cells: HEK293 or CHO
# Summary of the method: as §1
# GABA = assay: Ion channel panel (IonWorks Barracuda): GABA; format: cell-based; conditions: 100% = no change, <100% = inhibition
# Summary of the method: as §1
# Kv1.2 = target: T9, Kv1.2 (Homo sapiens, UniProt P16389); assay: cell-based; format: cell-based; conditions: 100% = no change, <100% = inhibition
# T9 construct: host or cells: HEK293 or CHO
# Summary of the method: as §1
# Kv1.1 = target: T10, Kv1.1 (Homo sapiens, UniProt Q09470); assay: cell-based; format: cell-based; conditions: 100% = no change, <100% = inhibition
# T10 construct: host or cells: HEK293 or CHO
# Summary of the method: as §1
# Kv1.3 = target: T11, Kv1.3 (Homo sapiens, UniProt P22001); assay: cell-based; format: cell-based; conditions: 100% = no change, <100% = inhibition
# T11 construct: host or cells: HEK293 or CHO
# Summary of the method: as §1
# α3β4 = target: T12, α3β4 (Homo sapiens, UniProt P30926+P32297); assay: Ion channel panel (IonWorks Barracuda): α3β4; format: cell-based; conditions: 100% = no change, <100% = inhibition
# T12 construct: host or cells: HEK293 or CHO
# Summary of the method: as §1
# NR2A = target: T13, NR2A (Homo sapiens, UniProt Q12879); assay: Ion channel panel (IonWorks Barracuda): NR2A; format: cell-based; conditions: 100% = no change, <100% = inhibition
# T13 construct: host or cells: HEK293 or CHO
# Summary of the method: as §1
# TRPV1 = target: T14, TRPV1 (Homo sapiens, UniProt Q8NER1); assay: Ion channel panel (IonWorks Barracuda): TRPV1; format: cell-based; conditions: 100% = no change, <100% = inhibition
# T14 construct: host or cells: HEK293 or CHO
# Summary of the method: as §1
# TRPA1 = target: T15, TRPA1 (Homo sapiens, UniProt O75762); assay: Ion channel panel (IonWorks Barracuda): TRPA1; format: cell-based; conditions: 100% = no change, <100% = inhibition
# T15 construct: host or cells: HEK293 or CHO
# Summary of the method: as §1
# [1] = first of two Nav1.7 columns (probably TP1)
# [2] = second of two Nav1.7 columns (probably TP2)
# [3] = first of two Nav1.5 columns (probably TP1)
# [4] = second of two Nav1.5 columns (probably TP2)
# Nav1.5, sequence (Q14524 whole entry): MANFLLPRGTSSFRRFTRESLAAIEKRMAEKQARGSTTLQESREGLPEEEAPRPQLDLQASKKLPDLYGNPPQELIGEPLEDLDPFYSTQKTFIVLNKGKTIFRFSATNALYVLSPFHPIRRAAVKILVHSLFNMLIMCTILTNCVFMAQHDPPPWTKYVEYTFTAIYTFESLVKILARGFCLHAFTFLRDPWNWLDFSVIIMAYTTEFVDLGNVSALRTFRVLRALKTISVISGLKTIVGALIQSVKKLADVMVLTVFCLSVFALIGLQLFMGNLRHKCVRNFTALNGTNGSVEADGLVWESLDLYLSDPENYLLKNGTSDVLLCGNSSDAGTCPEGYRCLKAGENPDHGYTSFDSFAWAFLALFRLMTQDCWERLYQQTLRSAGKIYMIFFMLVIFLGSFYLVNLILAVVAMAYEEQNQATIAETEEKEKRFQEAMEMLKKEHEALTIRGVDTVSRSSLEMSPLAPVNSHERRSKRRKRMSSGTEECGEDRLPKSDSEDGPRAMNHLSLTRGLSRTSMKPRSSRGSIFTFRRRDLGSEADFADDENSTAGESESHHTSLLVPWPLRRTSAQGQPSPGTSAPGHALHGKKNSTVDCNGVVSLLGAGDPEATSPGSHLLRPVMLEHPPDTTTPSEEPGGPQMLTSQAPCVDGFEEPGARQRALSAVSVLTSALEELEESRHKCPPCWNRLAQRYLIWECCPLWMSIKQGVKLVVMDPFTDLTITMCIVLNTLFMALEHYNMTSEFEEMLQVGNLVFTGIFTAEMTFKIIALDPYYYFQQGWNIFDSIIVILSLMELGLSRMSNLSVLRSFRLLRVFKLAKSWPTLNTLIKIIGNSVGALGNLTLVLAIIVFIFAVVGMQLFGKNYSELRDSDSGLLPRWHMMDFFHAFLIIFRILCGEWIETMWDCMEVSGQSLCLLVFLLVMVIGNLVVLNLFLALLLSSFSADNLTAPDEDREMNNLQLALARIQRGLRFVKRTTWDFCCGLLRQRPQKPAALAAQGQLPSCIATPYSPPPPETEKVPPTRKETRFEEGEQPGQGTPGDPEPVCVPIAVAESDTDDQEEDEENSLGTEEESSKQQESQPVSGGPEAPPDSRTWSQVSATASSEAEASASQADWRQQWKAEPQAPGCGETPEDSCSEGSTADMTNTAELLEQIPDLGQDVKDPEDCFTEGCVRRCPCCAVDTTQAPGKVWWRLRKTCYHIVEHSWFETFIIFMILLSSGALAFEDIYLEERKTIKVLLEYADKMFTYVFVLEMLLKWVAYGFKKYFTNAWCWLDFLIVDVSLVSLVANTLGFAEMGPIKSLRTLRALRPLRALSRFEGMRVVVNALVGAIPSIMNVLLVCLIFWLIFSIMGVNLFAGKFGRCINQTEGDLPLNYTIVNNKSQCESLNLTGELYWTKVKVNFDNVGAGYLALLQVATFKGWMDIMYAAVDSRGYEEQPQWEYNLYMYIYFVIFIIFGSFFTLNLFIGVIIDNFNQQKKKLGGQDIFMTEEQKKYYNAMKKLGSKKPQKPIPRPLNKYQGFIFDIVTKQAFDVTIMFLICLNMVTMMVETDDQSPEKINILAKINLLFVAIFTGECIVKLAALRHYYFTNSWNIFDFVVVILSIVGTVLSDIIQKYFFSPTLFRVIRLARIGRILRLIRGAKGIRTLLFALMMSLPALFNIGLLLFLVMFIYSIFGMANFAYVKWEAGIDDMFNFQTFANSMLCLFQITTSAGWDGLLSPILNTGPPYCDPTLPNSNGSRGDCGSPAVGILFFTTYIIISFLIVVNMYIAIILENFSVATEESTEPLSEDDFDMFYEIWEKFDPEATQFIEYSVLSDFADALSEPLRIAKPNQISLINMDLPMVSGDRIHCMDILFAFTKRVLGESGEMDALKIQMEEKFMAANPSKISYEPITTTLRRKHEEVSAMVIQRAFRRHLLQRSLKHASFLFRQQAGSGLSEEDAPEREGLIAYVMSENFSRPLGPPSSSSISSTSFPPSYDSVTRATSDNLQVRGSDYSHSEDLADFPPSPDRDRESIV
# T1 sequence (Q15858 whole entry): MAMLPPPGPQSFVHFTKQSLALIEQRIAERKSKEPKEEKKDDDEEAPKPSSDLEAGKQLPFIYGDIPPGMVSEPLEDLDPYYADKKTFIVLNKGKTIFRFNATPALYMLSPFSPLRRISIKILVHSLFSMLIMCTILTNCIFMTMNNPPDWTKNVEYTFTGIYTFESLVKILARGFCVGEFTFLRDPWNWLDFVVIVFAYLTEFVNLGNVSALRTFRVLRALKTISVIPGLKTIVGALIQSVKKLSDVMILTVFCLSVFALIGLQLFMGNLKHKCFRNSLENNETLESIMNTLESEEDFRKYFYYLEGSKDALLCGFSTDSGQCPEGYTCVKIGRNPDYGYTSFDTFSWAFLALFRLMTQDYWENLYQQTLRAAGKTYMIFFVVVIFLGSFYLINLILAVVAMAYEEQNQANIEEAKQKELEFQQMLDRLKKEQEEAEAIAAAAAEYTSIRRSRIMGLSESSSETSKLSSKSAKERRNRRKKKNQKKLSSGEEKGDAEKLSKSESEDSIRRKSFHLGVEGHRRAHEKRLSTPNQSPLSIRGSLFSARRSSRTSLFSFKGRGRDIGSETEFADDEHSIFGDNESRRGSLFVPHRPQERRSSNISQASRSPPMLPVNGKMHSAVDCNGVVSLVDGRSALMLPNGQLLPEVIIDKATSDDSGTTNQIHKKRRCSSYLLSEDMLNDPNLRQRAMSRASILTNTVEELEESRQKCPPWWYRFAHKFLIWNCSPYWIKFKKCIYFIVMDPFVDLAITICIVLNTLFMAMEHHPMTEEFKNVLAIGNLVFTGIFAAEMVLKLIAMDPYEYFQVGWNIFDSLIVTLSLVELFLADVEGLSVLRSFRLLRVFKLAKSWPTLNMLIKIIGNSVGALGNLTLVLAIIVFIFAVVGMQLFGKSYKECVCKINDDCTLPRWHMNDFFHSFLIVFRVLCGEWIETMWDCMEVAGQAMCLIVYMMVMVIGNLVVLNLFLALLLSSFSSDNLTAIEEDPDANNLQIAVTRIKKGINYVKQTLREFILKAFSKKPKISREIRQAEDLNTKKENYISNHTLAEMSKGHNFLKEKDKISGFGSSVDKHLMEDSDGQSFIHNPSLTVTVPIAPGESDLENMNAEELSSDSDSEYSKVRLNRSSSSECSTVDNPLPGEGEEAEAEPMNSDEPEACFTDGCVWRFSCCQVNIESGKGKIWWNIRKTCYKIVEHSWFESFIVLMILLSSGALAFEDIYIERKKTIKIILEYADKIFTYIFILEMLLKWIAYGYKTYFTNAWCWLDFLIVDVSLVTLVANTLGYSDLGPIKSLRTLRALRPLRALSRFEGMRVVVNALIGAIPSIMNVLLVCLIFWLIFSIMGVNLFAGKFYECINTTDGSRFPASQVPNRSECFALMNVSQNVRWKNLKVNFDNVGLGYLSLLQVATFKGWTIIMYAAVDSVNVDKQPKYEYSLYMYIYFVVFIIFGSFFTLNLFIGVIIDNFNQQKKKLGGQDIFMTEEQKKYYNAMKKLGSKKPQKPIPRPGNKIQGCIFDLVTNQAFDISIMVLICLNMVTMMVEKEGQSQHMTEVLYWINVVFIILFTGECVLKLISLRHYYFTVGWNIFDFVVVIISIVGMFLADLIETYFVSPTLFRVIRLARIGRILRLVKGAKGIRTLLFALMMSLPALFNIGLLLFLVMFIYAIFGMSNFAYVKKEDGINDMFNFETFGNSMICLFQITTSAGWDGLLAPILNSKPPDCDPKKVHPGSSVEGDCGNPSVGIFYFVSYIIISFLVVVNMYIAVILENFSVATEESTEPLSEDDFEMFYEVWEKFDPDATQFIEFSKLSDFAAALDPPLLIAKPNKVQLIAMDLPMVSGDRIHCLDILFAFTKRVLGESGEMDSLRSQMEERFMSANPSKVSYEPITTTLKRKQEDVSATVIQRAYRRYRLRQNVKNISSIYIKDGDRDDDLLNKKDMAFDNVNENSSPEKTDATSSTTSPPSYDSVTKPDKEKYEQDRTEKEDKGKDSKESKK
# T15 sequence (O75762 whole entry): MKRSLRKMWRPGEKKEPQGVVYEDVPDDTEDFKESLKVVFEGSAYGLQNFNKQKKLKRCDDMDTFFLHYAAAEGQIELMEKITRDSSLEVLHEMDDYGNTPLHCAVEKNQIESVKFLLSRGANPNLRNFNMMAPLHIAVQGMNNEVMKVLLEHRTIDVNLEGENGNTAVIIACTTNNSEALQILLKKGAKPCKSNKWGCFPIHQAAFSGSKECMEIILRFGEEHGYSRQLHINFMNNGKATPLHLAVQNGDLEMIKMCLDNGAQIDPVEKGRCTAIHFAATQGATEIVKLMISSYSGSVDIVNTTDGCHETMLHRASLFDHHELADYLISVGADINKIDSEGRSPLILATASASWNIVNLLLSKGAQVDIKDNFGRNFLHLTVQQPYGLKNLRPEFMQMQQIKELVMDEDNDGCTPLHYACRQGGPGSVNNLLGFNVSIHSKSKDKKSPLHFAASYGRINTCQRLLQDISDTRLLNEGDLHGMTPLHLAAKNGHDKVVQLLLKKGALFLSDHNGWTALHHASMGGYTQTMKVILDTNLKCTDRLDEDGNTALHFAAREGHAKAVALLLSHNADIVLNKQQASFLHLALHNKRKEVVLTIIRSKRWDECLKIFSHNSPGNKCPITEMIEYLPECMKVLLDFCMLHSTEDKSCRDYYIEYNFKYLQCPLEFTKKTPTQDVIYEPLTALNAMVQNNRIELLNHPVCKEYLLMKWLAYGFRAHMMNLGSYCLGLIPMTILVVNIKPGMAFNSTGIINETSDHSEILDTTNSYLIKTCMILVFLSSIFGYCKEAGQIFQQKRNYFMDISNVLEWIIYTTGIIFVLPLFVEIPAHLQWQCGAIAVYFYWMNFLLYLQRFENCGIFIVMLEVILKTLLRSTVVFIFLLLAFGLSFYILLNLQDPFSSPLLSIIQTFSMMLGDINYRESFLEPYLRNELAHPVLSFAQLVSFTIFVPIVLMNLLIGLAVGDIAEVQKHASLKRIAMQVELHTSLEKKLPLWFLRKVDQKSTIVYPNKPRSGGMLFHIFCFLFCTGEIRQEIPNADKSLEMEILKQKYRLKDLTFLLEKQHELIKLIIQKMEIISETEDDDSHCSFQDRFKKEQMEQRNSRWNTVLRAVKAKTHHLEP
substance,measurement,setting,value
27 (GSACQFWSCNSSCISRGYRQGYCWGIQYKYCQCQ) [compound 27],"Activity of Nav1.7 with peptide, expressed as a percentage of the reference compound",Nav1.7; [1],104%
same,"Activity of Nav1.7 with peptide, expressed as a percentage of the reference compound",Nav1.7; [2],114%
same,Activity of Nav1.7 with peptide (percentage of the reference compound),Nav1.7; [1],97%
same,Activity of Nav1.7 with peptide (percentage of the reference compound),Nav1.7; [2],97%
same,Activity of 5HT3a with peptide (percentage of the reference compound),5HT3a,78%
same,"Activity of 5HT3a with peptide, expressed as a percentage of the reference compound",5HT3a,105%
same,"Activity of NR2B with peptide, expressed as a percentage of the reference compound",NR2B; peptide at 0.2 μM,79%
same,Activity of NR2B with peptide (percentage of the reference compound),NR2B; peptide at 20 μM,89%
same,"Activity of Kir2.1 with peptide, expressed as a percentage of the reference compound",Kir2.1; peptide at 0.2 μM,101%
same,Activity of Kir2.1 with peptide (percentage of the reference compound),Kir2.1; peptide at 20 μM,86%
same,"Activity of a4b2 with peptide, expressed as a percentage of the reference compound",α4β2; peptide at 0.2 μM,90%
same,Activity of a4b2 with peptide (percentage of the reference compound),α4β2; peptide at 20 μM,82%
same,"Activity of Nav1.5 with peptide, expressed as a percentage of the reference compound",Nav1.5; [3],94%
same,"Activity of Nav1.5 with peptide, expressed as a percentage of the reference compound",Nav1.5; [4],93%
same,Activity of Nav1.5 with peptide (percentage of the reference compound),Nav1.5; [3],104%
same,Activity of Nav1.5 with peptide (percentage of the reference compound),Nav1.5; [4],109%
same,"Activity of hERG with peptide, expressed as a percentage of the reference compound",hERG; peptide at 0.2 μM,90%
same,Activity of hERG with peptide (percentage of the reference compound),hERG; peptide at 20 μM,75%
same,"Activity of Cav2.1 with peptide, expressed as a percentage of the reference compound",Cav2.1; peptide at 0.2 μM,108%
same,Activity of Cav2.1 with peptide (percentage of the reference compound),Cav2.1; peptide at 20 μM,103%
same,"Activity of Kv2.1 with peptide, expressed as a percentage of the reference compound",Kv2.1; peptide at 0.2 μM,91%
same,Activity of Kv2.1 with peptide (percentage of the reference compound),Kv2.1; peptide at 20 μM,94%
same,"Activity of Cav2.2 with peptide, expressed as a percentage of the reference compound",Cav2.2; peptide at 0.2 μM,105%
same,Activity of Cav2.2 with peptide (percentage of the reference compound),Cav2.2; peptide at 20 μM,116%
same,"Activity of GABA with peptide, expressed as a percentage of the reference compound",GABA; peptide at 0.2 μM,112%
same,Activity of GABA with peptide (percentage of the reference compound),GABA; peptide at 20 μM,105%
same,"Activity of Kv1.2 with peptide, expressed as a percentage of the reference compound",Kv1.2; peptide at 0.2 μM,84%
same,Activity of Kv1.2 with peptide (percentage of the reference compound),Kv1.2; peptide at 20 μM,107%
same,"Activity of Kv1.1 with peptide, expressed as a percentage of the reference compound",Kv1.1; peptide at 0.2 μM,81%
same,Activity of Kv1.1 with peptide (percentage of the reference compound),Kv1.1; peptide at 20 μM,89%
same,"Activity of Kv1.3 with peptide, expressed as a percentage of the reference compound",Kv1.3; peptide at 0.2 μM,106%
same,Activity of Kv1.3 with peptide (percentage of the reference compound),Kv1.3; peptide at 20 μM,100%
same,"Activity of a3b4 with peptide, expressed as a percentage of the reference compound",α3β4; peptide at 0.2 μM,98%
same,Activity of a3b4 with peptide (percentage of the reference compound),α3β4; peptide at 20 μM,93%
same,"Activity of NR2A with peptide, expressed as a percentage of the reference compound",NR2A; peptide at 0.2 μM,98%
same,Activity of NR2A with peptide (percentage of the reference compound),NR2A; peptide at 20 μM,88%
same,"Activity of TRPV1 with peptide, expressed as a percentage of the reference compound",TRPV1; peptide at 0.2 μM,99%
same,Activity of TRPV1 with peptide (percentage of the reference compound),TRPV1; peptide at 20 μM,67%
same,"Activity of TRPA1 with peptide, expressed as a percentage of the reference compound",TRPA1; peptide at 0.2 μM,85%
same,Activity of TRPA1 with peptide (percentage of the reference compound),TRPA1; peptide at 20 μM,114%
